Measurements taken from the DeepSol protein solubility set.

assay: soluble on expression in E. coli; label from the status in PepcDB or PDB records

Sequence	soluble on expression in E. coli
MSYNFELSYVKGCDSVHVVEHKTSAVYYPRSNGAAERFVDTLKRGIAKIKGEGSVNQQILNKFLISYRNTPHSALNGATPAECHFGRKIRTTMSLLMLTDRVLKVPKLTQYQQNMKHHYDLRNGARAKNFQVNQKVYVQVHQGNKSHWKHGVIRRKFGGVLYEVQVGDRMQKSHVNQIRTRCGDYSREDIFEETIYPLFFSTPGKFTSCSDNKSRSGATGGETNLFDSSGSSVNPRLSSDSFGFVGESGGDEMSRSDDPVVTSTVPSTDLNRGSRITSELKKKESNAVRGQPRGSSSTNNNDSSAPGYASRSHPTTDPSHSVRRSSRIRRVPDRYGSSVEHPLTSTGTPRGSTSTQLGQASTRNGSRYTASGRTPSCQGNRYSSIRGEGVTARRERVRSTWR	not soluble
MDFYYLPGSAPCRAVQMTAAAVGVELNLKLTNLMAGEHMKPEFLKINPQHCIPTLVDNGFALWESRAICTYLAEKYGKDDKLYPKDPQKRAVVNQRLYFDMGTLYQRFADYYYPQIFAKQPANAENEKKMKDAVDFLNTFLDGHKYVAGDSLTIADLTVLATVSTYDVAGFELAKYPHVAAWYERTRKEAPGAAINEAGIEEFRKYFEK	soluble
MGSDKIHHHHHHMGVDPFERNKILGRGINIGNALEAPNEGDWGVVIKDEFFDIIKEAGFSHVRIPIRWSTHAYAFPPYKIMDRFFKRVDEVINGALKRGLAVVINIHHYEELMNDPEEHKERFLALWKQIADRYKDYPETLFFEILNEPHGNLTPEKWNELLEEALKVIRSIDKKHTIIIGTAEWGGISALEKLSVPKWEKNSIVTIHYYNPFEFTHQGAEWVEGSEKWLGRKWGSPDDQKHLIEEFNFIEEWSKKNKRPIYIGEFGAYRKADLESRIKWTSFVVREMEKRRWSWAYWEFCSGFGVYDTLRKTWNKDLLEALIGGDSIE	not soluble
MSLAKSNDKTVTMYSIGPRLKAFSDWLLKTMAAGNLGVIFPAASREYAPLVEELWRDAAIQATYKRRSELGLLPSVANYFLERAIDVLTPDYEPSDVDILYAEGVTSSSGLACLDFSFPQTASEENLDPSDHHDSLLRYQLIRVPSRGLGENCKWIDMFEDVGMVVFVVSMSDYDQVSEDGTNKMLLTKKLFESIITHPIFENMDFLLILNKYDLLEEKVERVPLARCEWFQDFNPVVSRHRGSNNGNPTLGQLAFHFMAVKFKRFYSSLTGKKLFVSSSKSLDPNSVDSSLKLAMEILKWSEERTNICMSEYSMYSTEGHHHHHH	not soluble
MGSDKIHHHHHHMIDVIIVGGGPTGTMLASELRLHGVHTVVVEKRAEPTRIVRGLGLHVRSIEIMDQRGLLERFLAHGTKHPVGGYFAGIMKPWPKSLDTAHPYILGIPQPTTDRLLEERASELGADIRRGWELVGLSQDEDGVTAQLADGTQLRARYLVGCDGGRSTVRTLLGVGFPGESATTEWLLGEVKATASPETVAAVMAKVRQTQLGFAMGPLDDGVYRAVVPAAHVSEDRAAPPTLEEFAQRLREVTGTDFGVHSPRWLSRFNDATRQAERYRVGRVLLAGDAAHIHAPLGGQGLNLGIQDAFNLGWKLAAAVNGWAPEGLLDSYHTERHPVAAEVLDNTLAQSAFMSTDPRARAAHRLLLELMDFEEVNRHVMEKITAVGVRYDFGDGHALLGRRLRDVRLGQGRLYERMRHGRGVLLDRTGRLSVAGWADRVDHVADSAAEIDVPALLLRPDGHVAWIGEDQDDLLAHLPRWFGDPAA	not soluble
ADKKLVVATDTAFVPFEFKQGDLYVGFDVDLWAAIAKELKLDYELKPMDFSGIIPALQTKNVDLALAGITITDERKKAIDFSDGYYKSGLLVMVKANNNDVKSVKDLDGKVVAVKSGTGSVDYAKANIKTKDLRQFPNIDNAYMELGTNRADAVLHDTPNILYFIKTAGNGQFKAVGDSLEAQQYGIAFPKGSDELRDKVNGALKTLRENGTYNEIYKKWFGTEPK	soluble
MAHHHHHHMSSSDGQGMRAVILVGGFGTRLRPLTLTTPKPLVPFCNKPMIIHQIEALKAVGVTEVILAVAYRPEAMKEQMDEWSRKLGVLFVFSVEEEPLGTAGPLALARDILMQDDKPFFVLNSDVTCPFPMQELLDFHKAHGGEGTIMVSQVTQWEKYGVVVYSPQNYQIERFVEKPSSFLGDRINAGIYIFNKSILDRIPPCRTSIEKEIFPSMAAEGQLYAFNLEGFWMDIGQPKDYILGMTKYIPFLVHSNRETEKLHTEATKHQRGGRFTVIGASLIDPSAKIGDGAVIGPYASIGANCVIGESCRIDNAAILENSKVGKGSMVSRSIVGWNNRIGSWCHIKDISVLGDDVEVEDGVVLIGTKVLPNKDVGEHHFEPGIIM	soluble
MGSSHHHHHHGSPIHDKSPRPQEFAAVDLGSNSFHMVIARVVDGAMQIIGRLKQRVHLADGLGPDNMLSEEAMTRGLNCLSLFAERLQGFSPASVCIVGTHTLRQALNATDFLKRAEKVIPYPIEIISGNEEARLIFMGVEHTQPEKGRKLVIDIGGGSTELVIGENFEPILVESRRMGCVSFAQLYFPGGVINKENFQRARMAAAQKLETLTWQFRIQGWNVAMGASGTIKAAHEVLMEMGEKDGIITPERLEKLVKEVLRHRNFASLSLPGLSEERKTVFVPGLAILCGVFDALAIRELRLSDGALREGVLYEMEGRFRHQDVRSRTASSLANQYHIDSEQARRVLDTTMQMYEQWREQQPKLAHPQLEALLRWAAMLHEVGLNINHSGLHRHSAYILQNSDLPGFNQEQQLMMATLVRYHRKAIKLDDLPRFTLFKKKQFLPLIQLLRLGVLLNNQRQATTTPPTLTLITDDSHWTLRFPHDWFSQNALVLLDLEKEQEYWEGVAGWRLKIEEESTPEIAA	soluble
MAHHHHHHMSDKLEDIGEFVLVIGDFHSPMRNLGLPDCFKDLLKTDKIKHVLCTGNVGCNENLELLKNIADSVHITKGDMDNNFDFPEKINIKIGDFKISLVHGHQIIPWGDLNALLQWQKEYDSDIIISGHTHKNSINNFEGKYFINPGSATGAFQPWISNPTPSFILMAISKSSIVVYVYEEKNGKMNVEMSELRKQ	soluble
MSAYPKSYNPFDDDGEDEGARPAPWRDARDLPDGPDAPADRQQYLRQEVLRRAEATAASTSRSLALMYESEKVGVASSEELARQRGVLERTEKMVDKMDQDLKISQKHINSIKSVFGGLVNYFKSKPVETPPEQNGTLTSQPNNRLKEAISTSKEQEAKYQASHPNLRKLDDTDPVPRGAGSAMSTDAYPKNPHLRAYHQKIDSNLDELSMGLGRLKDIALGMQTEIEEQDDILDRLTTKVDKLDVNIKSTERKVRQL	soluble
MGSDKIHHHHHHMNAERQPSCCKVRLLLCDKSYPSHQSPIYTPTPPPWPLLALPGGVIMRTYLSSVAAIMSRSPDPAPRSSAPGRRASSSTRPPLARIGEVAYLKVVAVNTTGAFLDWGQPKDVLLPFAEQRFRPEVGKRVLVMLYEDAQGRPVASMRLDRFLADEATDLKAGDQVALVVAERTDLGFKAVVDHRYWGLLYADDIVHPPRRGQRLTGYIKRVREDGRLDLAMLPPGEAGLDVVGDKVLALLRCHGGFVALGDKTPAAEIKARVGVSKSAFKQAVGRLYKKRLITIEAEGIRLTREAIDDASSD	not soluble
MSKDYQSLAKLSPFELKDELIKIASSDGNRLMLNAGRGNPNFLATTPRRAFFRLGLFAAAESELSYSYMTTVGVGGLAKIDGIEGRFERYIAENRDQEGVRFLGKSLSYVRDQLGLDPAAFLHEMVDGILGCNYPVPPRMLNISEKIVRQYIIREMGADAIPSESVNLFAVEGGTAAMAYIFESLKLNGLLKAGDKVAIGMPVFTPYIEIPELAQYALEEVAINADPSLNWQYPDSELDKLKDPAIKIFFCVNPSNPPSVKMDQRSLERVRNIVAEHRPDLMILTDDVYGTFADDFQSLFAICPENTLLVYSFSKYFGATGWRLGVVAAHQQNVFDLALDKLQESEKVALDHRYRSLLPDVRSLKFIDRLVADSRAVALNHTAGLSTPQQVQMALFSLFALMDEADEYKHTLKQLIRRRETTLYRELGMPPLRDENAVDYYTLIDLQDVTAKLYGEAFSEWAVKQSSTGDMLFRIADETGIVLLPGRGFGSNRPSGRASLANLNEYEYAAIGRALRKMADELYAEYSGQAQNLKLAAALEHHHHHH	soluble
AEDRSLQAEPWFFGAIKRADAEKQLLYSENQTGAFLIRESESQKGDFSLSVLDEGVVKHYRIRRLDEGGFFLTRRKVFSTLNEFVNYYTTTSDGLCVKLEKPCLKIQV	soluble
MAHHHHHHMEAKAQAYLEKLSNSLQAAGRTATADVLKRAKEEFERSLWCEMTDDLLLAVRDPLVLESAYELHENVLKVTRMDMSPTAYVKLLHYICFCPNSTLQKALDLLNGAVVALSTSSEQGENMANCIRALLLLDSYNDKSSPAGTAASEASRILDKVESFIHSKQMHEVEPVLAALHCQARGKDYEIRQQYTKYYSNAFETVKSAERAEMPIIESDLLSLAYKAALSALLSEEIYNFGKFLNERHFTERLADSVQHAWILEWLRLCNDGKVEEFEQYAVAHKAEMAASPILSEFFPSITKKVRLMALLHLVFYTPFNERTFTFDVIARRCAVDEERVEPLLLAALAQGIIMGKIDGLTQEVHITWVEPRVLSLQEVKELAVHVSRWKEKTLGLMQCMKEAAQETHN	soluble
MSLKHVVVIGAVALGPKAACRFKRLDPEAHVTMIDQASRISYGGCGIPYYVSGEVSNIESLQATPYNVVRDPEFFRINKDVEALVETRAHAIDRAAHTVEIENLRTGERRTLKYDKLVLALGSKANRPPVEGMDLAGVTPVTNLDEAEFVQHAISAGEVSKAVIVGGGFIGLEMAVSLADMWGIDTTVVELADQIMPGFTSKSLSQMLRHDLEKNDVVVHTGEKVVRLEGENGKVARVITDKRTLDADLVILAAGVSPNTQLARDAGLELDPRGAIIVDTRMRTSDPDIFAGGDCVTIPNLVTGKPGFFPLGSMANRQGRVIGTNLADGDATFPGAVGSWAVKLFEGSASGAGLTVEGALREGYDAVNVHVEQFDRAHFYPEKTIMTLQLVVDRPTRRVLGIQGFSTLGDALTARINAVATMLASKPTVEDISNAEVVYSPPFASAMDIVNVAGNVADNVLAGRCRLVGTEEFVQLWEGRKDADICFVDTRLAANAVPLVEKYGDEWINIPEEELAARIDEIPRDKTVMLVCNTGLRSFESQLILDRLGLTNTKSVAGGMVAIHKIGGDEGHHHHHH	soluble
MSLGRLEKRFSFAFCSYWRPFRRPLRTHHGLWSVREGILIRLTDRETGCQGYGEIAPIPWFGSETLEQALAFCRQLPPLLSEAYILGIPEALPACRFGLEGAWLACRDPDWLNKDLSLLSFCELLGETLPPESYKDSYKDSVPLTRSVYKLKVGRDPMQQELEKLEQWLERLPPGSRLRLDANGGLSLAEAHRWLMVCDRLNQDSPGKIEFLEQPLPPDQHSHLVELSRQYQTPIALDESVACLEQLQAVHRSGWTGILVVKPSLVGSCIALREYLSRHPGLDLVFSSALETAIGAWHGLAWAGSLQAKTASPRAVGWGVGEFFQEGDPLTLTQLSAQERAALMQAVWERYSREGHHHHHH	soluble
MEKVAFIGLGAMGYPMAGHLARRFPTLVWNRTFEKALRHQEEFGSEAVPLERVAEARVIFTCLPTTREVYEVAEALYPYLREGTYWVDATSGEPEASRRLAERLREKGVTYLDAPVSGGTSGAEAGTLTVMLGGPEEAVERVRPFLAYAKKVVHVGPVGAGHAVKAINNALLAVNLWAAGEGLLALVKQGVSAEKALEVINASSGRSNATENLIPQRVLTRAFPKTFALGLLVKDLGIAMGVLDGEKAPSPLLRLAREVYEMAKRELGPDADHVEALRLLERWGGVEIR	soluble
MGSDKIHHHHHHMAKADLDKDPFDVASMFDDVGKNYDLTNTVLSFGQDRVWRKRTRQRLDLKPGEKVLDLAAGTAVSTVELAKSGAFCVACDFSQGMLAAGKDRDVSKVVGDGMQLPFADNSFDAVTISYGLRNIHDFRAGLKEMARVTKPGGRLTVAEFSTPVIPVFGTVYKEYLMRLLPQAARAVSSNPEAYIYLADSIRAWPSQAELAREINQNGWSDCGWQNLTFGIVALHSAIKPEN	not soluble
